From PMC10772735, “Characterization of erythroferrone oligomerization and its impact on BMP antagonism” (The Journal of Biological Chemistry, 2023)

B1: N-terminally flag-tagged hERFE (residues 44–354), WT erythroferrone [human] / BMP6 [not stated] (parent)
chain 1: PPPGNELPRGPGESRAGPAARPPEPTAERAHSVDPRDAWMLFVRQSDKGVNGKKRSRGKAKKLKFGLPGPPGPPGPQGPPGPIIPPEALLKEFQLLLKGAVRQRERAEPEPCTCGPAGPVAASLAPVSATAGEDDDDVVGDVLALLAAPLAPGPRAPRVEAAFLCRLRRDALVERRALHELGVYYLPDAEGAFRRGPGLNLTSGQYRAPVAGFYALAATLHVALGEPPRRGPPRPRDHLRLLICIQSRCQRNASLEAIMGLESSSELFTISVNGVLYLQMGQWTSVFLDNASGCSLTVRSGSHFSAVLLGV
chain 2: SASSRRRQQSRNRSTQSQDVARVSSASDYNSSELKTACRKHELYVSFQDLGWQDWIIAPKGYAANYCDGECSFPLNAHMNATNHAIVQTLVHLMNPEYVPKPCCAPTKLNAISVLYFDDNSNVILKKYRNMVVRACGCH

Variants of: B1
Assay: SPR competition (BMP6 + ERFE over Alk3-Fc captured on protein A chip)
Settings: curve maximum near the ~300 s dotted line, RU is residual BMP6 binding to Alk3-Fc (lower RU = more competition by ERFE), read off a plot

Row | Variant | response (with BMP6, 10 nM BMP6 + 80 nM F85A ERFE) | response (with BMP6, 10 nM BMP6 + 160 nM F85A ERFE) | response (with BMP6, 10 nM BMP6 + 80 nM W82A ERFE) | response (with BMP6, 10 nM BMP6 + 160 nM W82A ERFE)
1 | chain 1 F42A | 12 RU | 11 RU | – | –
2 | chain 1 W39A | – | – | 12 RU | 10 RU
